“And” between values parts separate entries of the source, which are not always exact repeats. Identical values can stand only once.
Tests used:
[1] = tested on: carbapenem-resistant P. aeruginosa strains; assay: Resensitization of carbapenem-resistant strains, combinations with imipenem or meropenem (Tables 18-22); assay type: cell-based, Pseudomonas aeruginosa
[2] = tested on: P. aeruginosa strain WC-453; assay: Time-kill assay in HEPES or CAA with 25% human serum (Tables 7, 8); assay type: cell-based, Pseudomonas aeruginosa
Method: Exponential phase bacteria were then pelleted and resuspended in 1/5 culture volume of 25 mM HEPES, pH 7.4 before a final adjustment to an optical density corresponding to a McFarland value of 0.5. […] All treatments were incubated at 37° C. with aeration. At time points before the addition of lysin (or buffer control) and at 1 hour and 3 hours intervals thereafter, culture samples were removed for quantitative plating on CAA agar plates.

[3] = tested on: Pseudomonas aeruginosa strain CFS-1292 (meropenem resistant); assay: MIC in 25% CAA alone, with […] human serum or […] SURVANTA (Table 13); assay type: cell-based
Method: Materials and methods: MICs were determined by broth microdilution in media supplemented with human serum and pulmonary surfactant ([…]®; Myoderm Clinical Supplies). Minimal biofilm eradicating concentrations (MBECs) were determined using standard methods. […] Fluorescence microscopy was performed after LIVE/DEAD staining (ThermoFisher) and TEM was performed.

P. aeruginosa isolates = assay: MIC against a range of isolates in CAA + […] human serum (Table 11); assay type: cell-based, Pseudomonas aeruginosa

B1: GN121: variant lysin (SEQ ID NO: 175), also disclosed in WO 2019/118632 (protein)
chain: MTYTLSKRSLDNLKGVHPDLVAVVHRAIQLTPVDFAVIEGLRSVSRQKELVAAGASKTMNSRHLTGHAVDLAAYVNGIRWDWPLYDAIAVAVKAAAKELGVAIVWGGDWTTFKDGPHFELDRSKYRRKKTRKRLKKIGKVLKWI
With B1 the “resensitization to carbapenems in synergistic combinations” value ([1]; imipenem (IPM) and meropenem (MEM), carbapenem-resistant isolates) was “reductions of IPM and MEM MICS to below breakpoint values”, the “lysin MIC, Combination” value ([1]; in combination with imipenem, isolate PA19) was 0.125 µg/mL and the “lysin MIC, Combination” value ([1]; in combination with imipenem, isolate PA20) was 0.25 µg/mL. The “lysin MIC, Combination” value ([1]; in combination with imipenem, isolate PA21) was 0.125 µg/mL, the “lysin MIC, Combination” value ([1]; in combination with imipenem, isolate PA22) was 0.25 µg/mL and the “lysin MIC, Combination” value ([1]; in combination with imipenem, isolate PA23) was 0.25 µg/mL. For the same molecule, the “lysin MIC, Combination” value ([1]; in combination with imipenem, isolate PA24) was 0.125 µg/mL, the “lysin MIC, Combination” value ([1]; in combination with meropenem, isolate PA19) was 0.5 µg/mL and the “lysin MIC, Combination” value ([1]; in combination with meropenem, isolate PA20) was 0.5 µg/mL. The “lysin MIC, Combination” value ([1]; in combination with meropenem, isolate PA22) was 0.25 µg/mL, the “lysin MIC, Combination” value ([1]; in combination with meropenem, isolate PA23) was 0.5 µg/mL and the “lysin MIC, Combination” value ([1]; in combination with meropenem, isolate WC-452) was 0.06 µg/mL. The “MIC, Alone” value ([1]; isolate PA19) was 1 µg/mL and 2 µg/mL, the “MIC, Alone” value ([1]; isolate PA20) was 1 µg/mL and 2 µg/mL and the “MIC, Alone” value ([1]; isolate PA21) was 1 µg/mL. For the same molecule, the “MIC, Alone” value ([1]; isolate PA22) was 2 µg/mL and 1 µg/mL, the “MIC, Alone” value ([1]; isolate PA23) was 1 µg/mL and 2 µg/mL and the “MIC, Alone” value ([1]; isolate PA24) was 1 µg/mL. For the same molecule, the “MIC, Alone” value ([1]; isolate WC-452) was 1 µg/mL, the FICI ([1]; lysin + imipenem, isolate PA19) was 0.155 and the FICI ([1]; lysin + imipenem, isolate PA20) was 0.265. For the same molecule, the FICI ([1]; lysin + imipenem, isolate PA21) was 0.155, the FICI ([1]; lysin + imipenem, isolate PA22) was 0.188 and the FICI ([1]; lysin + imipenem, isolate PA23) was 0.257. For the same molecule, the FICI ([1]; lysin + imipenem, isolate PA24) was 0.155, the FICI ([1]; lysin + meropenem, isolate PA19) was 0.281 and the FICI ([1]; lysin + meropenem, isolate PA20) was 0.313. The FICI ([1]; lysin + meropenem, isolate PA21) was 0.188, the FICI ([1]; lysin + meropenem, isolate PA22) was 0.313 and the FICI ([1]; lysin + meropenem, isolate PA23) was 0.375. For the same molecule, the FICI ([1]; lysin + meropenem, isolate PA24) was 0.156, the FICI ([1]; lysin + meropenem, isolate WC-452) was 0.123 and the “bactericidal activity (CFU decrease of 3-Log10, 3 hours after the addition of lysin)” value ([2]; 10 μg/mL, enumerated lysins in CAA/HuS, general statement for HEPES and CAA/HuS) was “bactericidal activity”. For the same molecule, the “HEPES (Log10 CFU/mL), 1 hr” value ([2]; 25 mM HEPES pH 7.4, lysin 10 μg/ml, 1 hr, WC-453) was under 3.7 Log10 CFU/mL, the “HEPES (Log10 CFU/mL), 3 hr” value ([2]; 25 mM HEPES pH 7.4, lysin 10 μg/ml, 3 hr, WC-453) was under 3.7 Log10 CFU/mL and the “CAA/HuS (Log10 CFU/mL), 1 hr” value ([2]; CAA + 25% human serum, lysin 10 μg/ml, 1 hr, WC-453) was 7.6 Log10 CFU/mL. For the same molecule, the “CAA/HuS (Log10 CFU/mL), 3 hr” value ([2]; CAA + 25% human serum, lysin 10 μg/ml, 3 hr, WC-453) was under 3.7 Log10 CFU/mL, the “MIC in […] Survanta” value [3] was 2 µg/mL and the “MIC in human serum ([…]) in CAA” value [3] was 0.5 µg/mL. The “activity in human serum and pulmonary surfactant” value [3] was “active in human serum and pulmonary surfactant”, the “25% CAA MIC” value ([3]; media alone) was 1 and the “activity against P. aeruginosa isolates in human serum or SURVANTA” value (P. aeruginosa isolates; Tables 11 and 12) was “active against a variety of P. aeruginosa isolates”. The “MIC, CAA + […] Human Serum” value (P. aeruginosa isolates; strain CFS 1109 (ATCC 17646)) was 0.5 µg/mL, the “MIC, CAA + […] Human Serum” value (P. aeruginosa isolates; strain CFS 1292) was 1 µg/mL and the “MIC, CAA + […] Human Serum” value (P. aeruginosa isolates; strain CFS1539 (PA1)) was 0.5 µg/mL. The “MIC, CAA + […] Human Serum” value (P. aeruginosa isolates; strain CFS 1540 (PA2)) was 0.5 µg/mL, the “MIC, CAA + […] Human Serum” value (P. aeruginosa isolates; strain CFS 1541 (PA3)) was 0.5 µg/mL and the “MIC, CAA + […] Human Serum” value (P. aeruginosa isolates; strain CFS 1557 (PA19)) was 2 µg/mL. The “MIC, CAA + […] Human Serum” value (P. aeruginosa isolates; strain CFS 1558 (PA20)) was 0.5 µg/mL, the “MIC, CAA + […] Human Serum” value (P. aeruginosa isolates; strain CFS 1559 (PA21)) was 1 µg/mL and the “MIC, CAA + […] Human Serum” value (P. aeruginosa isolates; strain CFS 1560 (PA22)) was 1 µg/mL. For the same molecule, the “MIC, CAA + […] Human Serum” value (P. aeruginosa isolates; strain CFS 1561 (PA23)) was 1 µg/mL, the “MIC, CAA + […] Human Serum” value (P. aeruginosa isolates; strain CFS 1562 (PA24)) was 1 µg/mL and the “MIC, CAA + […] Human Serum” value (P. aeruginosa isolates; strain CFS 1596 (PA26)) was 0.5 µg/mL. For the same molecule, the “MIC, CAA + […] Human Serum” value (P. aeruginosa isolates; strain CFS 1597 (PA27)) was 0.5 µg/mL, the “MIC, CAA + […] Human Serum” value (P. aeruginosa isolates; strain CFS 1669 (PA41)) was 1 µg/mL and the “MIC, CAA + […] Human Serum” value (P. aeruginosa isolates; strain CFS 1674 (PA46)) was 0.5 µg/mL. For the same molecule, the “MIC, CAA + […] Human Serum” value (P. aeruginosa isolates; strain CFS 1675 (PA47)) was 0.5 µg/mL and the “MIC, CAA + […] Human Serum” value (P. aeruginosa isolates; strain CFS 1766 (ATCC 27853)) was 2 µg/mL.

From patent US20210324359A1, “USE OF GRAM-NEGATIVE LYSIN-ANTIMICROBIAL PEPTIDE (AMP) POLYPEPTIDE CONSTRUCTS IN TREATING ENDOCARDITIS” (priority 2020, published 2021)
